Earlier results, collected in US20040126825A1, “Methods of screening and using inhibitors of angiogenesis” (Allergan, Inc, priority 2001, published 2004).

System: MMP-2
Settings: cultured breast carcinoma cells; Deryugina et al. 2001

## vitronectin: a specific ligand of αvβ3
  activation of MMP-2 (conversion from pro-form to active form): inhibited
